In patent publication US20170184603A1 (MORPHOTEK, published 2017):

Target: T1, purified FR-α (UniProt P15328 25-234, limits assumed)
T1 construct: also called folate receptor-alpha; alpha-folate receptor
Experiment: surface plasmon resonance spectroscopy

T1 sequence (P15328 25-234 limits assumed): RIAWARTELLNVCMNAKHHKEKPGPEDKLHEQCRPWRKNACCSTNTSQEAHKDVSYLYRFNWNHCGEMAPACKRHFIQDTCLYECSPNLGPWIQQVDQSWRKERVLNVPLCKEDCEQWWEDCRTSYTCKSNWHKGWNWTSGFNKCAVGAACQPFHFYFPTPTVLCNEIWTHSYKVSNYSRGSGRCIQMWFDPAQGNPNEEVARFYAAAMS

- Kd: 2.23 nM
- koff: ~0.000502 s⁻¹
- kon: ~225000 M⁻¹ s⁻¹
B1: anti-FR-α antibody comprising a heavy chain comprising an amino acid sequence of SEQ ID NO:5 and a light chain comprising an amino acid sequence of SEQ ID NO:2 (antibody, human IgG1, kappa, V domains shown)
VH: EVQLVESGGGVVQPGRSLRLSCSASGFTFSGYGLSWVRQAPGKGLEWVAMISSGGSYTYYADSVKGRFAISRDNAKNTLFLQMDSLRPEDTGVYFCARHGDDPAWFAYWGQGTPVTVSS
VL: DIQLTQSPSSLSASVGDRVTITCSVSSSISSNNLHWYQQKPGKAPKPWIYGTSNLASGVPSRFSGSGSGTDYTFTISSLQPEDIATYYCQQWSSYPYMYTFGQGTKVEIKR
notes: also called antibody of the invention; humanized anti-FR-α antibody
